For this assay, the target named is AD-Myo5 [S. cerevisiae]. Nature of the assay: yeast two-hybrid (β-galactosidase activity). As to conditions: read off a plot.

For the substance “She4-BD, wild type mutant S18A [S. cerevisiae] / AD-Myo5 [S. cerevisiae] chain 1 S18A”, the response is, setting by setting: (25 °C (no heat shock)) 0.34 mU; (39 °C (heat shock)) 0.45 mU.
For “She4-BD, wild type mutant S18E [S. cerevisiae] / AD-Myo5 [S. cerevisiae] chain 1 S18E”, the response (25 °C (no heat shock)) is 0.075 mU and the response (39 °C (heat shock)) stood at 0.17 mU.
Taken in the same sequence, the figures for “human BD-UNC45-SM, wild type mutant S251A [human] / AD-Myo5 [S. cerevisiae] chain 1 S251A” were 0.79 mU and 1 mU.
Taken in the same sequence, the figures for “human BD-UNC45-SM, wild type mutant S251E [human] / AD-Myo5 [S. cerevisiae] chain 1 S251E” were 0.29 mU and 0.52 mU.
